The source of these data is PMC3292467, “Comparison between ^68Ga-bombesin (^68Ga-BZH3) and the cRGD tetramer ^68Ga-RGD4 studies in an experimental nude rat model with a neuroendocrine pancreatic tumor cell line” (EJNMMI Research, 2011).

The term IC50 denotes the midpoint of a concentration-inhibition curve.

The target in this assay is T1, integrin ανβ3, P06756.
T1 chain 1: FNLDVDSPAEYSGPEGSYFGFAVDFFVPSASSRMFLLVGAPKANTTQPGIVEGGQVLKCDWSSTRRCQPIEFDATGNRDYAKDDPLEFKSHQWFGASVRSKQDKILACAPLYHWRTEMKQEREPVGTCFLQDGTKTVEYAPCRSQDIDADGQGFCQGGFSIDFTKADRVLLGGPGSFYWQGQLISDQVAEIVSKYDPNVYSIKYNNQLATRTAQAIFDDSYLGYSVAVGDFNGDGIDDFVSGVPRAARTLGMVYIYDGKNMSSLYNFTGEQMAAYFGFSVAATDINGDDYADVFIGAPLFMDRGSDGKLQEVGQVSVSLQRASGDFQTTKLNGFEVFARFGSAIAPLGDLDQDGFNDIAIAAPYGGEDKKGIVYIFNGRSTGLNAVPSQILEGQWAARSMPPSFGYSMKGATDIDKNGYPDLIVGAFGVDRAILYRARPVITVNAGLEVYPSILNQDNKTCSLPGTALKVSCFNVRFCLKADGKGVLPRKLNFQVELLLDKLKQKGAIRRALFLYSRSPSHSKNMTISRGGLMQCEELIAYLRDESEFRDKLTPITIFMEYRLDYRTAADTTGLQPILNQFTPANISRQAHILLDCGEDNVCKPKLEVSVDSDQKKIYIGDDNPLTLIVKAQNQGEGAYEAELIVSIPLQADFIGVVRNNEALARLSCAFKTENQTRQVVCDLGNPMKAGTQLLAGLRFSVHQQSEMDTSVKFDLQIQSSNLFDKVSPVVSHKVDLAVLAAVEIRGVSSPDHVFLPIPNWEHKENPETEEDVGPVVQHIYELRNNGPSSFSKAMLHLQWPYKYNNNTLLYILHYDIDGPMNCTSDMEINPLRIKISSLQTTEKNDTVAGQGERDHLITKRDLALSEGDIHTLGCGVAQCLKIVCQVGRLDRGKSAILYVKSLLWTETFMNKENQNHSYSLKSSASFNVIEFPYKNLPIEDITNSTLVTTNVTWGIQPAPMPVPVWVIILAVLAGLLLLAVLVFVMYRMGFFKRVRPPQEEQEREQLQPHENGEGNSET
T1 chain 2: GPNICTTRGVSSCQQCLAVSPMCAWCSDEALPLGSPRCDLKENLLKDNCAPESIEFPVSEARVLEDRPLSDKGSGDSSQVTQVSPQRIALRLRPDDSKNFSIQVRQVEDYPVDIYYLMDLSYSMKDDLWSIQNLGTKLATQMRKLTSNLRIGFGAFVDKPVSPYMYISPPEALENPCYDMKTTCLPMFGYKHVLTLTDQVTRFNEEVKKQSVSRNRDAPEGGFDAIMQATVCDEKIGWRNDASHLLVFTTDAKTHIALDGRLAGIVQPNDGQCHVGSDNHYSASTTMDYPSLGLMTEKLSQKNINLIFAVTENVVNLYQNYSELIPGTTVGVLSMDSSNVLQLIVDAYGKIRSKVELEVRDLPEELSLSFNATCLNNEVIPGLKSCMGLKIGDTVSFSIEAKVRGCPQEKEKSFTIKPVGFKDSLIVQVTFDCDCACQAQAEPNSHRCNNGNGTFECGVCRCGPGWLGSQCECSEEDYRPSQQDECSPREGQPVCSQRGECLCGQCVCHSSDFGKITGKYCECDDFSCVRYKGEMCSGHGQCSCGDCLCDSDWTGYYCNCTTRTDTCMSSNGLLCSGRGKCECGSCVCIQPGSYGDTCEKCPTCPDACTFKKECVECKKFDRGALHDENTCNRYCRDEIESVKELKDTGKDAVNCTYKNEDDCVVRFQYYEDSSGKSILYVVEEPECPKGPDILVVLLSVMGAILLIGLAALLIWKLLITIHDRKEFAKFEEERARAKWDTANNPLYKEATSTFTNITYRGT
The experiment in a line: not stated; IC50 of ^68Ga-RGD4 for ανβ3; format, competitor and conditions not told. The following applies: remark: other sources report otherwise.

Square brackets hold non-standard residues; d marks the D form.

cyclo(RGD[dF]K) (not fully specified (residue 5); also: tetramer on DOTA-Mal4 core, 68Ga on DOTA) [^68Ga-RGD tetramer (^68Ga-labelled DOTA-comprising RGD tetramer)] had an IC50 of 4.97 µM.
